Measurements from patent US20060062761A1.

Each binder was assayed against HLA-DR DRB1*0101 on fixed HOM-2 cells (human) (assay: competition). Conditions: modification not given.

Going from IQGVGVTETPLMKED [34] to AEIMRSFSLSTNLQE [49], the IC50 falls from greater than 500 µM to 15 µM.

RRISLFSCLKDRHDF [8] and AQMRRISLFSCLKDR [7] are within 1.5-fold of each other in IC50: 180 µM for the first, 150 µM for the second.

Going from AVRKYFQRITLYLKE [40] to TETPLMKEDSILAVR [36], the IC50 falls from 95 µM to 25 µM (3.8-fold).

Going from VGVTETPLMKEDSIL [35] to QFQKAETIPVLHEMI [16], the IC50 falls from greater than 500 µM to 350 µM. The second is the more potent here.

Going from SILAVRKYFQRITLY [39] to KEDSILAVRKYFQRI [38], the IC50 rises from 100 µM to greater than 500 µM.

Compared with VVRAEIMRSFSLSTN [48], PLMKEDSILAVRKYF [37] is 3.4-fold higher in IC50: 25 µM for the first, 85 µM for the second. The first is the more potent here.

These binders were tested against HLA-DR DRB1*0401 on fixed WT-51 cells (human) (assay: competition). Conditions: modification not given.

First: KDSSAAWDETLLDKF [24]
Second: YTELYQQLNDLEACV [29]
The IC50 of the first is 90-fold higher: 450 µM for the first, 5 µM for the second.

First: QQIFNLFSTKDSSAA [21]
Second: FNLFSTKDSSAAWDE [22]
The IC50 of the first is lower: 70 µM for the first, greater than 500 µM for the second.

Each binder was assayed against HLA-DR DRB1*0701 on fixed MOU (MANN) cells (human) (assay: competition). Conditions: modification not given.

First: IQGVGVTETPLMKED [34]
Second: AEIMRSFSLSTNLQE [49]
The IC50 of the first is higher: greater than 500 µM for the first, 15 µM for the second. The second is the more potent here.

Compared with AVRKYFQRITLYLKE [40], KDRHDFGFPQEEFGN [11] is higher in IC50: 70 µM for the first, greater than 500 µM for the second.

Going from SPCAWEVVRAEIMRS [46] to TETPLMKEDSILAVR [36], the IC50 rises from 8 µM to greater than 500 µM.

Compared with LKEKKYSPCAWEVVR [44], FGNQFQKAETIPVLH [15] is lower in IC50: greater than 500 µM for the first, 25 µM for the second.

VGVTETPLMKEDSIL [35] and SLFSCLKDRHDFGFP [9] cannot be ordered by IC50: greater than 500 µM for the first, greater than 500 µM for the second.

QEEFGNQFQKAETIP [14] and GFPQEEFGNQFQKAE [13] cannot be ordered by IC50: greater than 500 µM for the first, greater than 500 µM for the second.

First: SILAVRKYFQRITLY [39]
Second: KEDSILAVRKYFQRI [38]
The IC50 of the first is lower: 60 µM for the first, greater than 500 µM for the second. The first is the more potent here.

Going from KKYSPCAWEVVRAEI [45] to VVRAEIMRSFSLSTN [48], the IC50 falls from 200 µM to 7 µM (29-fold).

TLYLKEKKYSPCAWE [43] and PLMKEDSILAVRKYF [37] cannot be ordered by IC50: greater than 500 µM for the first, greater than 500 µM for the second.

SCLKDRHDFGFPQEE [10] and HDFGFPQEEFGNQFQ [12] cannot be ordered by IC50: greater than 500 µM for the first, greater than 500 µM for the second.
